Data reported in the array DNA melting data of Ke et al..

Assay: melting temperature; melt of duplexes
Details: sodium 0.0675 M; strand 1 µM

Substance	Tm [°C]
CGACGTGCTATATGTGCTG+CAGCACATGGCGCACGTCG ((((((((...((((((((+))))))))...))))))))	48.5
CGACGTGCTATATGTGCTG+CAGCACATGTCGCACGTCG ((((((((.(.((((((((+)))))))).).))))))))	51.4
CGACGTGCTATATGTGCTG+CAGCACATTACGCACGTCG ((((((((...((((((((+))))))))...))))))))	49.3
CGACGTGCTATATGTGCTG+CAGCACATTAGGCACGTCG ((((((((...((((((((+))))))))...))))))))	51.4
CGACGTGCTATATGTGCTG+CAGCACATTCAGCACGTCG (((((((((..((((((((+))))))))..)))))))))	51
CGACGTGCTATATGTGCTG+CAGCACATTTAGCACGTCG ((((((((((.((((((((+)))))))).))))))))))	55.3
CGACGTGCTCAATGTGCTG+CAGCACATAAAGCACGTCG (((((((((..((((((((+))))))))..)))))))))	52.1
CGACGTGCTCAATGTGCTG+CAGCACATACAGCACGTCG (((((((((..((((((((+))))))))..)))))))))	50.7
CGACGTGCTCAATGTGCTG+CAGCACATACGGCACGTCG ((((((((...((((((((+))))))))...))))))))	48.1
CGACGTGCTCAATGTGCTG+CAGCACATAGGGCACGTCG ((((((((.(.((((((((+)))))))).).))))))))	52.8
CGACGTGCTCAATGTGCTG+CAGCACATATCGCACGTCG ((((((((...((((((((+))))))))...))))))))	47.5
CGACGTGCTCAATGTGCTG+CAGCACATCAGGCACGTCG ((((((((...((((((((+))))))))...))))))))	50.5
CGACGTGCTCAATGTGCTG+CAGCACATCATGCACGTCG ((((((((...((((((((+))))))))...))))))))	49.7
CGACGTGCTCAATGTGCTG+CAGCACATCCAGCACGTCG (((((((((..((((((((+))))))))..)))))))))	50.5
CGACGTGCTCAATGTGCTG+CAGCACATCTAGCACGTCG (((((((((..((((((((+))))))))..)))))))))	51
CGACGTGCTCAATGTGCTG+CAGCACATGAAGCACGTCG (((((((((..((((((((+))))))))..)))))))))	53.6
CGACGTGCTCAATGTGCTG+CAGCACATGACGCACGTCG ((((((((...((((((((+))))))))...))))))))	48.7
CGACGTGCTCAATGTGCTG+CAGCACATGCCGCACGTCG ((((((((...((((((((+))))))))...))))))))	49
CGACGTGCTCAATGTGCTG+CAGCACATGGCGCACGTCG ((((((((.(.((((((((+)))))))).).))))))))	51.8
CGACGTGCTCAATGTGCTG+CAGCACATGGGGCACGTCG ((((((((.(.((((((((+)))))))).).))))))))	55
CGACGTGCTCAATGTGCTG+CAGCACATTCGGCACGTCG ((((((((..(((((((((+)))))))))..))))))))	51.2
CGACGTGCTCAATGTGCTG+CAGCACATTGTGCACGTCG ((((((((.((((((((((+)))))))))).))))))))	56.7
CGACGTGCTCAATGTGCTG+CAGCACATTTAGCACGTCG (((((((((.(((((((((+))))))))).)))))))))	54.7
CGACGTGCTCCATGTGCTG+CAGCACATAAAGCACGTCG (((((((((..((((((((+))))))))..)))))))))	50.9
CGACGTGCTCCATGTGCTG+CAGCACATAACGCACGTCG ((((((((...((((((((+))))))))...))))))))	47
CGACGTGCTCCATGTGCTG+CAGCACATAGGGCACGTCG ((((((((.(.((((((((+)))))))).).))))))))	52.3

Substance	Tm [°C]
CGACGTGCTCCATGTGCTG+CAGCACATATTGCACGTCG ((((((((...((((((((+))))))))...))))))))	47.9
CGACGTGCTCCATGTGCTG+CAGCACATCACGCACGTCG ((((((((...((((((((+))))))))...))))))))	47
CGACGTGCTCCATGTGCTG+CAGCACATCAGGCACGTCG ((((((((...((((((((+))))))))...))))))))	48.6
CGACGTGCTCCATGTGCTG+CAGCACATCCAGCACGTCG (((((((((..((((((((+))))))))..)))))))))	48.7
CGACGTGCTCCATGTGCTG+CAGCACATCGGGCACGTCG ((((((((.(.((((((((+)))))))).).))))))))	51.2
CGACGTGCTCCATGTGCTG+CAGCACATCGTGCACGTCG ((((((((.(.((((((((+)))))))).).))))))))	44.7
CGACGTGCTCCATGTGCTG+CAGCACATCTAGCACGTCG (((((((((..((((((((+))))))))..)))))))))	49.5
CGACGTGCTCCATGTGCTG+CAGCACATGACGCACGTCG ((((((((..(((((((((+)))))))))..))))))))	49.8
CGACGTGCTCCATGTGCTG+CAGCACATGATGCACGTCG ((((((((..(((((((((+)))))))))..))))))))	53.7
CGACGTGCTCCATGTGCTG+CAGCACATGCAGCACGTCG (((((((((.(((((((((+))))))))).)))))))))	55.3
CGACGTGCTCCATGTGCTG+CAGCACATGGGGCACGTCG ((((((((.((((((((((+)))))))))).))))))))	61.9
CGACGTGCTCCATGTGCTG+CAGCACATGGTGCACGTCG ((((((((.((((((((((+)))))))))).))))))))	58.9
CGACGTGCTCCATGTGCTG+CAGCACATGTGGCACGTCG ((((((((..(((((((((+)))))))))..))))))))	53.8
CGACGTGCTCCATGTGCTG+CAGCACATGTTGCACGTCG ((((((((..(((((((((+)))))))))..))))))))	52.7
CGACGTGCTCCATGTGCTG+CAGCACATTATGCACGTCG ((((((((...((((((((+))))))))...))))))))	47.6
CGACGTGCTCCATGTGCTG+CAGCACATTCCGCACGTCG ((((((((...((((((((+))))))))...))))))))	45.6
CGACGTGCTCCATGTGCTG+CAGCACATTGAGCACGTCG ((((((((((.((((((((+)))))))).))))))))))	56.5
CGACGTGCTCCATGTGCTG+CAGCACATTTCGCACGTCG ((((((((...((((((((+))))))))...))))))))	45.7
CGACGTGCTCCATGTGCTG+CAGCACATTTGGCACGTCG ((((((((...((((((((+))))))))...))))))))	48.3
CGACGTGCTCGATGTGCTG+CAGCACATAAAGCACGTCG (((((((((..((((((((+))))))))..)))))))))	52.7
CGACGTGCTCGATGTGCTG+CAGCACATAACGCACGTCG ((((((((...((((((((+))))))))...))))))))	49
CGACGTGCTCGATGTGCTG+CAGCACATAATGCACGTCG ((((((((...((((((((+))))))))...))))))))	49.7
CGACGTGCTCGATGTGCTG+CAGCACATACAGCACGTCG (((((((((..((((((((+))))))))..)))))))))	51.8
CGACGTGCTCGATGTGCTG+CAGCACATACGGCACGTCG ((((((((...((((((((+))))))))...))))))))	50.5
CGACGTGCTCGATGTGCTG+CAGCACATAGGGCACGTCG ((((((((.(.((((((((+)))))))).).))))))))	55.4
CGACGTGCTCGATGTGCTG+CAGCACATATCGCACGTCG ((((((((...((((((((+))))))))...))))))))	47.8
